Results on two molecules are retold here after paper PMC9998502, “Functional selectivity of EM-2 analogs at the mu-opioid receptor” (Frontiers in Pharmacology, 2023).

Non-standard residues stand in square brackets, D forms with d. No end group written: not given here. Dmt = Cc1cc(O)cc(C)c1C[C@H](N)C(=O)O

Experiment [1] has as its target human mu opioid receptor (human) (UniProt P35372).
Experiment [2] has the same target. The experiment can be described thus: radioligand binding; displacement of [3H]DAMGO from commercial membranes of CHO cells transfected with the human recombinant mu opioid receptor; Ki, mean ± SEM, n ≥ 3.

human mu opioid receptor (human), sequence (P35372 whole entry): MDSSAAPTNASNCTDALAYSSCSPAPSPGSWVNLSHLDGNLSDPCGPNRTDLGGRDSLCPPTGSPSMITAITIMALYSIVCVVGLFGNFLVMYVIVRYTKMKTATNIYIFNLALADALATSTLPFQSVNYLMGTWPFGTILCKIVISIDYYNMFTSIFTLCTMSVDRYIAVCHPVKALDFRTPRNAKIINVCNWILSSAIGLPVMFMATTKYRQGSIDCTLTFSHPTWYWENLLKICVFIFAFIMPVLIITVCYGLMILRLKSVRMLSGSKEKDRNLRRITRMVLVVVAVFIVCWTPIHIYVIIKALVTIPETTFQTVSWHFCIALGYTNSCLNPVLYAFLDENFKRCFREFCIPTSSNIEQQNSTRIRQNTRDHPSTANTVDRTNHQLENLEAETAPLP

B1: endomorphin-2 (Tyr-Pro-Phe-Phe-NH2) (peptide)
peptide: YPFF-NH2
In general, Ki refers to the equilibrium dissociation constant of an inhibitor or competing ligand from its target. For the molecule B1, the calcium mobilization, CHO cells with human mu receptor and Gαqi5: α (Emax ratio to the standard agonist) in experiment [1] was found to be 1. For the same molecule, in experiment [2], the inhibition constant Ki was 1.97 nM.

B2: EM-2 analog 1 (Dmt-Pro-Phe-Phe-NH2) (peptide)
peptide: [Dmt]PFF-NH2
Regarding B2, the calcium mobilization, CHO cells with human mu receptor and Gαqi5: α (Emax ratio to the standard agonist) in experiment [1] came to 0.85. In addition, in experiment [2], the inhibitory constant (Ki) was 0.54 nM.
